Measurements taken from paper PMC3800195 (Molecular microbiology, 2010).

Molecular target: the molecule itself
Test: crystal structure

B1: IsdI (enzyme, Staphylococcus aureus)
chain: MFMAENRLQLQKGSAEETIERFYNRQGIETIEGFQQMFVTKTLNTEDTDEVKILTIWESEDSFNNWLNSDVFKEAHKNVRLKSDDDGQQSPILSNKVFKYDIGYHYQK
- binding result: binds
